From article doi:10.1101/2020.08.20.256677v1 (biorxiv, 2020)

B1: DnfA (Alcaligenes ammonioxydans) (protein)
chain: MTIKSYETDDAVRNMLQKLSVLWKNRAAVNQELPDYNNLAFDPNKADFSECLLPFREHQAWLEAPEELKSQCLSYAWGIYNLKTIYVECNVVTPSCEDIIKTPPPSANRNLLQDVMSQALLDEALHTRMSIMACNYIYSMRGLQPLDFTNFNLVQWRNDILSQCSSESERRLTRFAIACASETLITDYLKTMAEDKSIQTICHEVTRTHAMDEWSHSSVFSFVASDIIHGLSQKEREHMRAVILRTVEMFANNEMGAWEKVFSMVNFPNARDILHDTGDSNEIGVYTGSVESLIERIGLNSKSGQAQAQDEQQEALQ

How the values were obtained:
DnfA = DnfA (Alcaligenes ammonioxydans, UniProt A0ABX8SXK4); experiment: biochemical
purified protein = substrate: NO; experiment: purified protein; conditions: 480 μM FAD, 10 mM NADH, 21% O2, 0.6 μM DnfA, 30 °C, 25-400 μM NH2OH

Molecule | Kd (DnfA) [nM] | Km (purified protein) [µM] | kcat (purified protein) [s⁻¹]
NO [hydroxylamine] | 160 ± 20 | – | –
B1 | – | 48.1 ± 6.0 | 0.31 ± 0.02
